± gives the standard deviation of the averaged measurements.
System: Saccharomyces cerevisiae
Assay: protein stability index of tFT-peptide fusion (C-terminal peptide) (PSI (0-1 scale)); higher = more stable (slower turnover)
Details: genetic background: wild type; temperature: 30 C
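Note: PSI is a weighted mean of sequencing reads over stability bins, variants kept only with over 10 reads, mCherry proximal and sfGFP distal, peptide attached via GGGS linker.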

Sequence	protein stability index
FPSPPPGPHPSP	0.76336 ± 0.00013
RHGLPPAPILSP	0.661 ± 0.038
GGSGGRVGVAGG	0.645 ± 0.062
VCSEARRKSVAL	0.673 ± 0.02
PSSLRLPLCSPL	0.7039 ± 0.004
AREGARVVPVGR	0.717 ± 0.014
VWSDGCWVDWLL	0.733 ± 0.13
FAPVPPRATFSH	0.691 ± 0.022
RVIIWDRRFLAG	0.6793 ± 0.0026
ISPRLGLPLAPL	0.732 ± 0.067
EIRKGGVRSTSN	0.668 ± 0.13
GGVLERSRRRGG	0.741 ± 0.17
ILLSETEMIDAD	0.683 ± 0.022
GRDPARPRPLAP	0.677 ± 0.046
LRCFLESPRQST	0.724 ± 0.071
AVKRNDALGIQF	0.718 ± 0.046
PFPAPPPPPPPP	0.678 ± 0.064
GVCAVCRLGLVA	0.5574 ± 0.00072
LLSPAPRSPRRP	0.725 ± 0.019
AHPLSPLSSPLR	0.682 ± 0.081
HLIRRGGSQTWT	0.713 ± 0.049
RRGEKKDEKGGR	0.67 ± 0.062
MDGAVRRCLVRG	0.666 ± 0.062
GGGARGGGGWGG	0.631 ± 0.097
LSLPQPHPPLKS	0.679 ± 0.029
PPRPDRSSLPPF	0.712 ± 0.037

Sequence	protein stability index
FPPPPPRPPRLP	0.68 ± 0.075
RRHRPKNEVPLC	0.705 ± 0.029
PPRPLTPAPSDT	0.682 ± 0.014
KSHKKKKKNKNF	0.539 ± 0.0035
RPPYRRSPPRSP	0.616 ± 0.019
HTVPTLLPPNVP	0.665 ± 0.015
VGGWGERGRGGS	0.696 ± 0.015
LVKRINKVNNRR	0.632 ± 0.1
PPHRRTPQRRCP	0.701 ± 0.013
GGWGCWQAGGLT	0.7444 ± 0.0016
FFPFSLFPLPPS	0.744 ± 0.066
VSGLKYSVLVGG	0.555 ± 0.015
GGCRQKPRGGAD	0.666 ± 0.09
GGPGGGVSGWEG	0.704 ± 0.12
SRHGFLVNMCTL	0.683 ± 0.028
STVKARVLIITS	0.5231 ± 0.0032
SPVHPSQHLWPP	0.615 ± 0.021
PPPPPQSRASSP	0.738 ± 0.022
RYLSVPGLEIPK	0.677 ± 0.068
DSRRDYLHLVFT	0.646 ± 0.023
PPGQRGRRDRAA	0.647 ± 0.015
EEEGRRREEETS	0.67 ± 0.041
VTSRSFYRVSPL	0.68 ± 0.14
PGSLPPPPPPPP	0.716 ± 0.016
WHACAGWLGQKG	0.71 ± 0.078
LRARLTGRFIVG	0.669 ± 0.013

Sequence	protein stability index
RLWSSFKRHGAA	0.743 ± 0.022
RPEVRIHITSQS	0.655 ± 0.017
SCGMDLALGYAV	0.689 ± 0.061
SPLSLSFLLLCL	0.524 ± 0.028
PPSPPPPPPPPP	0.6847 ± 0.0032
SRISSGKFTGAV	0.601 ± 0.041
CFSSLRFCLPSV	0.686 ± 0.00021
CLGRLRLMSSCR	0.688 ± 0.044
FSLGQCLFGLWV	0.612 ± 0.026
TRPTPTRADCFG	0.685 ± 0.026
GYHRGLSHVLED	0.694 ± 0.018
WCTLNGASLCLH	0.7719 ± 0.0067
PPSRTPFLPPFR	0.691 ± 0.032
MNVASCRGREYV	0.686 ± 0.032
QLEGQGISFRVL	0.785 ± 0.065
VRCAVVTMDLTL	0.691 ± 0.05
SRPPLLPTPPPS	0.701 ± 0.047
RGQSGSLSKLLG	0.72 ± 0.026
LPPCGQIVSLDT	0.68 ± 0.022
PNPHDPQLPPPH	0.709 ± 0.05
APPVPLWVNPRT	0.7 ± 0.025
RLAVGMIRPQGE	0.637 ± 0.024
LRSLRFALFPPA	0.642 ± 0.083
LLAEPASSRFRP	0.722 ± 0.029
PHHAPRPPPFAG	0.646 ± 0.05
FRTLVEAGSLMD	0.6995 ± 0.00077

Sequence	protein stability index
QPGDVWEFGVLL	0.73 ± 0.027
SPWFRSAASTPT	0.786 ± 0.082
VSSELLFLVVRF	0.543 ± 0.0089
GVFVVGLSCSLR	0.5521 ± 0.0048
GCRRGGGFLECV	0.633 ± 0.034
LCFVFDLASLCW	0.539 ± 0.04
TLLAPPAPTPAG	0.684 ± 0.036
FGCCCGGGLLGV	0.711 ± 0.027
PPPPLYPQPPPT	0.705 ± 0.025
PDPSTRASDRKR	0.648 ± 0.017
VSEKICNCLGKT	0.657 ± 0.088
PSPQNIPDPISP	0.673 ± 0.04
HTKYISRRRTKR	0.706 ± 0.013
NSTLSSNATRVK	0.727 ± 0.015
KGQPTTRVKEEW	0.654 ± 0.0091
FLCNSVAGSLCI	0.643 ± 0.022
IRGIKSRKFTSV	0.753 ± 0.0079
PSILRGVLSAPK	0.695 ± 0.04
GPVVAGRLWLWV	0.641 ± 0.046
CMGASRTRILTR	0.681 ± 0.046
ADVWSCAFCFDC	0.595 ± 0.033
DSTWGLGLFSVP	0.64 ± 0.033
LGPRMYKRRDLR	0.724 ± 0.023
PGWDSHRKILSQ	0.68 ± 0.0083
FFFPLLLLSPPI	0.535 ± 0.015
LSPPFLLTSPLT	0.703 ± 0.046

Sequence	protein stability index
SPSPLPLSPSPL	0.749 ± 0.086
WSREGGVVESVG	0.709 ± 0.019
LPPSSCPPPPTP	0.702 ± 0.068
STTLKIHRKNRK	0.725 ± 0.063
LVWTGGLVGWLR	0.719 ± 0.2
CCVYFLSMFFVL	0.575 ± 0.026
LSPLGLGPLLPP	0.68 ± 0.048
PTLDATLSVASG	0.667 ± 0.036
VAGTLPFMEFTS	0.722 ± 0.023
SGFYQNTCSSLV	0.756 ± 0.12
ASLGPCLPLSLN	0.695 ± 0.03
VVAGCLWGEYAT	0.702 ± 0.17
SAVRLGANLCRT	0.6979 ± 0.0057
GMRILRLIHVIP	0.571 ± 0.031
SPISFIHPHISG	0.644 ± 0.017
VAPPIPSKAGHL	0.753 ± 0.2
YLGTTHTGTSHR	0.701 ± 0.019
LRHLPRDVPSYI	0.7049 ± 0.0046
GCGRGGIAGGPR	0.702 ± 0.0014
FFAGELGVYCLV	0.596 ± 0.033
VLVGRAGIVFLG	0.573 ± 0.04
PLQEHYRQIFPD	0.71 ± 0.0044
TFLPPTTSPYVL	0.738 ± 0.052
PSHLHERIRPAR	0.726 ± 0.16
SAQHPSTRHRPP	0.6 ± 0.035
YCRGGGLAKREV	0.689 ± 0.021

Sequence	protein stability index
VMWVGGAAGPVV	0.663 ± 0.037
ARRAVPGRGCEV	0.683 ± 0.066
LYHPRLAPLPRT	0.627 ± 0.042
NPRGAKRRNSRK	0.663 ± 0.058
EHERQQYKNYNK	0.671 ± 0.057
WPAFYTSRLLLR	0.615 ± 0.034
FGFLELTDPHGC	0.576 ± 0.023
GPGGVGVTSGGK	0.679 ± 0.062
QGREREAGAEVM	0.699 ± 0.03
YRFSKELEQKGQ	0.68281 ± 0.0003
PLSASPLPPFSR	0.734 ± 0.11
RKIRRLIVKKGI	0.67 ± 0.022
DRRTLSLDLCGS	0.644 ± 0.045
SARRAALGVWVV	0.636 ± 0.026
KIENQKKRLQRT	0.708 ± 0.028
VGSDICLGLCLL	0.871 ± 0.02
SLPLPVFSFPCS	0.653 ± 0.00069
GGLGDIHSDDVE	0.681 ± 0.019
KKGKSKKKGKKT	0.6906 ± 0.0018
RGVLRSETCRLS	0.7104 ± 0.0069
RTRRRQELNHSK	0.735 ± 0.2
IWTSFKRRRWNF	0.532 ± 0.033
RFSVRGARHRCG	0.693 ± 0.0079
LSPGLPRLLVKM	0.669 ± 0.033
SLLPHAHAPSPL	0.673 ± 0.014
PSPPRPSGVPVT	0.674 ± 0.017

Sequence	protein stability index
ECGLGGGGGLGV	0.689 ± 0.077
SVLDAVGGSVTA	0.668 ± 0.092
VIASPALLLPLF	0.642 ± 0.062
LWLCLCCSPFFV	0.658 ± 0.1
TTEESGGEGEGG	0.664 ± 0.014
RDSQSGVVVKGT	0.726 ± 0.024
CNCGGRGCGWMR	0.651 ± 0.025
SPPSRLRPAILP	0.668 ± 0.032
PLLPLPPNPSPP	0.681 ± 0.022
AYLCLLPPFFTV	0.674 ± 0.037
ELRSAIRAVPFL	0.737 ± 0.028
HMCSTYGKLRLD	0.622 ± 0.052
SLLILMYHIAPF	0.53 ± 0.03
PAAFPRPTRHAA	0.693 ± 0.067
SRPRPSPSPFIA	0.708 ± 0.045
AFPLFTDLTRVP	0.7692 ± 0.0066
HYDTHQTPQTSP	0.667 ± 0.023
FSRLNAKLPCLA	0.579 ± 0.06
SLALVATWCGYR	0.688 ± 0.052
GARGRAYDRTSQ	0.669 ± 0.038
GRRVRAPADFKS	0.587 ± 0.02
EVSRCRTVPVWL	0.662 ± 0.07
AVQESVSHSLVL	0.723 ± 0.0012
YYLAVGNRIASR	0.688 ± 0.043
GIVRGFGGGGEE	0.662 ± 0.026
LVNLESRAGAIR	0.713 ± 0.043

Sequence	protein stability index
PPLPGHPCLWPT	0.649 ± 0.057
PRSPPRSLFFPC	0.648 ± 0.047
CVLVGGVPAGGG	0.6174 ± 0.0028
TSSEREGHYCVR	0.693 ± 0.034
APSLLAPPPLRP	0.674 ± 0.017
CSMGGWPTERGI	0.6968 ± 0.0039
CRVWRAPSGWVG	0.646 ± 0.03
ELKRVCVHRTER	0.7 ± 0.025
SPTPHTLRLLPT	0.662 ± 0.011
KLGRWGARGSGR	0.655 ± 0.021
RRGYEVSSLSDD	0.672 ± 0.0042
VGGAVDFSVFFC	0.585 ± 0.018
WRELGCFGVRGD	0.732 ± 0.022
PRSPLRYPPHCP	0.691 ± 0.035
VPVGSLLVGSVT	0.528 ± 0.012
RSRSKKKKRKQY	0.671 ± 0.042
SPPPPPPRPPPP	0.691 ± 0.015
LSGWVLVGNWGN	0.647 ± 0.036
VASLGFVGFCRF	0.713 ± 0.06
ISCFRLGFVRKI	0.535 ± 0.0058

Source: the supplement of paper PMC10724198
